Our source for the Virus neutralization EC50 and binding of second antibody (% of its binding as first antibody) values is patent publication US20240317840A1.

In experiment [1] the target is HBsAg of HBV genotype D, serotype ayw (Hepatitis B virus). Put plainly: cell-based or functional assay.
Experiment [2] concerns the target HBsAg AD serotype (Hepatitis B virus). Put plainly: SPR epitope binning; competitor (1st, saturating Ab): HBC34 (self).
The target of experiment [3] is HBsAg AY serotype (Hepatitis B virus). The experiment is described as above.
Experiment [4] concerns the target HBsAg AD serotype (Hepatitis B virus). Put plainly: SPR epitope binning; competitor (1st, saturating Ab): NOV3842.
Experiment [5] concerns the target HBsAg AY serotype (Hepatitis B virus). Described as above.
Experiment [6] concerns the target HBsAg AD serotype (Hepatitis B virus). Put plainly: SPR epitope binning; competitor (1st, saturating Ab): NOV3540.
For experiment [7], the target named is HBsAg AY serotype (Hepatitis B virus). The experiment is described as above.
Experiment [8] addresses HBsAg AD serotype (Hepatitis B virus). Put plainly: SPR epitope binning; competitor (1st, saturating Ab): NOV3832.
For experiment [9], the target named is HBsAg AY serotype (Hepatitis B virus). The description is as above.
Experiment [10] addresses HBsAg AD serotype (Hepatitis B virus). Put plainly: SPR epitope binning; competitor (1st, saturating Ab): CR8087.
Experiment [11] has as its target HBsAg AY serotype (Hepatitis B virus). The experiment is described as above.
Experiment [12] addresses HBsAg AD serotype (Hepatitis B virus). Put plainly: SPR epitope binning; competitor (1st, saturating Ab): NOV3841.
The target of experiment [13] is HBsAg AY serotype (Hepatitis B virus). The description is as above.

Regarding Neg. Control (antibody), the Virus neutralization EC50 in experiment [1] is > 500 nM.
HBC34 (antibody): the binding of second antibody (% of its binding as first antibody) is 0 in [2]; 0 in experiment [3]; 121 in experiment [4]; 134 in experiment [5]; 121 in experiment [6]; 131 in experiment [7]. For the same substance, the binding of second antibody (% of its binding as first antibody) in [8] is 126; in experiment [9], 257; in [10], 146; in [11], 166; in experiment [12], 124; in [13] it was 151.
